In paper PMC6463007:

Biological target: E. coli GyrB (DNA gyrase subunit B) (E. coli) (UniProt P0AES6)

Sequence of E. coli GyrA (DNA gyrase subunit A) (P0AES4 whole entry): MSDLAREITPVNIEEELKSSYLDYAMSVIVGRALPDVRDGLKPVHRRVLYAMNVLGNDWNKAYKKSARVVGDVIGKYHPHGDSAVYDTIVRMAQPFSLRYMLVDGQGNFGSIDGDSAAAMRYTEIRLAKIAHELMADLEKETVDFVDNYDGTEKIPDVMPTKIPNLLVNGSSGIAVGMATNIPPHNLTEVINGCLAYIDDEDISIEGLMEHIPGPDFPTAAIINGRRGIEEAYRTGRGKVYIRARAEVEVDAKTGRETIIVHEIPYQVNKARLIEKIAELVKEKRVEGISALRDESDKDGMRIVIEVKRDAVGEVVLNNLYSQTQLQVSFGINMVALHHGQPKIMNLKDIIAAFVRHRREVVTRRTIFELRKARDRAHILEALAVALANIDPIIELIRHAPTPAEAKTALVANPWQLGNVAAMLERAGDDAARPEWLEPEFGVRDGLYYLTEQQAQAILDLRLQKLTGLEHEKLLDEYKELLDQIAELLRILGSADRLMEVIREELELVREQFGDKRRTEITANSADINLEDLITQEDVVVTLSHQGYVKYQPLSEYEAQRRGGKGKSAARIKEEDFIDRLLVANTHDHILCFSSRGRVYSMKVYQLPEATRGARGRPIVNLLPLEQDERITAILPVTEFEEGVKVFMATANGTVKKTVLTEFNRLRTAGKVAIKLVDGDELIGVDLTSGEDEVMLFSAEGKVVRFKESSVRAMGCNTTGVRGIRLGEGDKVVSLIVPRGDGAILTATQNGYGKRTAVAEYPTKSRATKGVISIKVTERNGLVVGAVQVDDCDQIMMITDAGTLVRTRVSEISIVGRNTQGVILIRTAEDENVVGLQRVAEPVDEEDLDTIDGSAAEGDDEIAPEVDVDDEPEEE

“E. coli GyrA (DNA gyrase subunit A) (from UniProt P0AES4 1-875) (enzyme)” gave a supercoiling of relaxed pMP1000 plasmid by gyrase reconstituted from the two purified subunits; time course 5-80 s after ATP, 30 °C, chloroquine gel (supercoils/sec) of 5.
